Test results taken from US20250243271A1 (ALCEA THERAPEUTICS, published 2025).
Values belong to the binder of their own block, whether it stands above or below them.

Biological target: T1, Recombinant human Notch4 (human, UniProt Q99466 24-1447, limits assumed)
T1 construct: also called Notch4 analyte; Notch4 (antigen)
T1 sequence: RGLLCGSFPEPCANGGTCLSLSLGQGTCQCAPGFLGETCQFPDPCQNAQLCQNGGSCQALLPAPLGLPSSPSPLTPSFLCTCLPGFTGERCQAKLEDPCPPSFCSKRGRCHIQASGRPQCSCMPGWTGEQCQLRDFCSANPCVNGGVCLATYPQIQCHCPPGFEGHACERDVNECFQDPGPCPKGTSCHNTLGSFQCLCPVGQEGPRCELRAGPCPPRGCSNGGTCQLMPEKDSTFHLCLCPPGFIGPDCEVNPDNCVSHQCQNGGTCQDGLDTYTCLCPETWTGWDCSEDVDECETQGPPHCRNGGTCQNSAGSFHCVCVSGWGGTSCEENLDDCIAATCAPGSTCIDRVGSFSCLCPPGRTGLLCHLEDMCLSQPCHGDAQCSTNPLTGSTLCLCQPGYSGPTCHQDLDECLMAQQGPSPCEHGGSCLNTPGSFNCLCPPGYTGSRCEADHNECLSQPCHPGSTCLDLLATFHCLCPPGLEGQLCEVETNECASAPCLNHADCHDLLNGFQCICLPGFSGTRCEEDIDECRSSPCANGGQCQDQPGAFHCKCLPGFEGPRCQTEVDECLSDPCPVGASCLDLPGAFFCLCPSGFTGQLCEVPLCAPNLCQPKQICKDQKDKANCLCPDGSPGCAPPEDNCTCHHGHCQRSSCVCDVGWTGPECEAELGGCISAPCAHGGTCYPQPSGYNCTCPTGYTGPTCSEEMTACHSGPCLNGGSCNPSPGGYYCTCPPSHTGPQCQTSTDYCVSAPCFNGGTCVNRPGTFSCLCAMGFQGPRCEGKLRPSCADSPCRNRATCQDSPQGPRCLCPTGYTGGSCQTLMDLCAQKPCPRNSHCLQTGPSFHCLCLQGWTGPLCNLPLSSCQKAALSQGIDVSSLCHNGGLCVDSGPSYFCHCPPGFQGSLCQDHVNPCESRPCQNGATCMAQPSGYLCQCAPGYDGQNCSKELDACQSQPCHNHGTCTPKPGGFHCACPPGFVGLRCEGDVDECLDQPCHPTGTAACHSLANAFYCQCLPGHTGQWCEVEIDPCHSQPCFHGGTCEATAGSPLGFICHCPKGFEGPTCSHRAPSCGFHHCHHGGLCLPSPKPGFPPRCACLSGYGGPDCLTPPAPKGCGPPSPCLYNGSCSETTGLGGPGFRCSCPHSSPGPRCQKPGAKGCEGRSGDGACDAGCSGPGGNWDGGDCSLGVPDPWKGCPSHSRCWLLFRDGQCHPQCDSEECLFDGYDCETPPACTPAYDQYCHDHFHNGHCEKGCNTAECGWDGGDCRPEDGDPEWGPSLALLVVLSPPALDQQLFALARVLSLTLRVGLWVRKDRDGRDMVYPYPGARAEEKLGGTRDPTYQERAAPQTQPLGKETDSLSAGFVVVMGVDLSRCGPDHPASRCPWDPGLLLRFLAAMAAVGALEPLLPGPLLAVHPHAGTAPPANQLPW
Test: SPR, antibody captured by anti-human IgG Fc on HC30M chip, Notch4 as analyte
Protocol: Binding kinetics measurements. Following expression and purification, clones were characterized using surface plasmon resonance (SPR) to determine binding kinetics and epitope binding activity. HC30M chips (polycarboxylate hydrogel surfaces having medium charge density and 30 nm coating thickness) were coated with anti-human Fc antibodies (unlabeled goat anti-human IgG Fc from Southern Biotech) to capture the candidate antibodies. Candidate antibodies were diluted to 10 μg/mL in HEPES-buffered saline Tris-EDTA (HBSTE)) and exposed to the surfaces for 15 minutes. After stabilizing baseline using HBSTE, Notch4 analytes were injected sequentially from a lowest concentration of 0.41 nM to a highest concentration of 300 nM. (Notch4 was diluted in HBSTE+0.5 mg/mL bovine serum albumin (BSA) to obtain a series of 3-fold dilutions.) To assess specificity, experiments were also run using Notch2 as an analyte in a single injection at 100 nM in HBSTE+0.5 mg/mL.

Kd: 6.1 nM
B1: iggrefmat 1-29 (antibody, V domains shown)
VH: QVQLVQSGAEVKKPGASVKVSCKVSRGTFSTYAIHWVRQAPGKGLEWMGGINAATGYTIYAQKFQGRVTMTEDTSTDTAYMELSSLKSEDTAVYYCVRSVGSIEYWGQGTLVTVSS
VL: DIQMTQSPSSVSASVGDRVTITCRASQGISNHLAWYQQKPGKAPKLLIYGASSRQSGVPSRFSGSGSGTDFTLTISSLQPEDFANYYCLHDRYPYTFGGGTKVEIK
notes: Tested as an antibody captured by anti-human IgG Fc; also called C01-Lib1-Pl1

Kd: 1.5 nM
B2: iggrefmat 1-34 (antibody, V domains shown)
VH: QVQLVQSGAEVKKPGASVKVSCKVSGYTLTKSSIHWVRQAPGKGLEWMGGINPSAGTRIYAQKFQGRVTMTEDTSTDTAYMELSSLKSEDTAVYYCVRGSNPNVWGKGTTVTVSS
VL: DIQMTQSPSSVSASVGDRVTITCRASQTIGNYLAWYQQKPGKAPKLLIYKASTLASGVPSRFSGSGSGTDFTLTISSLQPEDFANYYCQQYNFYPRTFGGGTKVEIK
notes: Tested as an antibody captured by anti-human IgG Fc

Kd: 1.5 nM
B3: iggrefmat 1-12 (antibody, V domains shown)
VH: QVQLVQSGAEVKKPGASVKVSCKVSGYPFSNYAIHWVRQAPGKGLEWMGGISPYTGKTIYAQKFQGRVTMTEDTSTDTAYMELSSLKSEDTAVYYCAFSRYYYDSSGYHGDAFDIWGQGTMVTVSS
VL: DIQMTQSPSSVSASVGDRVTITCRASQGISNHLAWYQQKPGKAPKLLIYDASNRATGVPSRFSGSGSGTDFTLTISSLQPEDFANYYCQQSFTIPSFGGGTKVEIK
notes: Tested as an antibody captured by anti-human IgG Fc; also called C02-Lib1_Pl1

Kd: 5.3 nM
B4: C03-Lib1-Pl1 (antibody, V domains shown)
VH: QVQLVQSGAEVKKPGASVKVSCKVSGYTFTDLPIHWVRQAPGKGLEWMGGINPHSGDAIYAQKFQGRVTMTEDTSTDTAYMELSSLKSEDTAVYYCTTVIAVAGSNDSRPCGRSYLCVLDYWGQGTLVTVSS
VL: DIQMTQSPSSVSASVGDRVTITCNASQGIGHSLAWYQQKPGKAPKLLIYGATSRATGVPSRFSGSGSGTDFTLTISSLQPEDFANYYCLQDYIYPFTFGGGTKVEIK
notes: as for B2

Kd: 0.41 nM
B5: C08-Lib3-Pl1 (antibody, V domains shown)
VH: EVQLVESGGGLVQPGGSLRLSCAASGLPFSSYGMSWVRQAPGKGLELVASIGTSGTRTYYPDSVKGRFTISRDNAKNSLYLQMNSLRAEDTAVYYCARLGEGSGWSYFDYWGQGTLVTVSS
VL: DIVMTQSPLSLPVTPGEPASISCRSSQSLLHSTGYNYLHWYLQKPGQSPQLLIYSGSYRASGVPDRFSGSGSGTDFTLKISRVEAEDVGVYYCQQGYSTPHTFGGGTKVEIK
notes: as for B2

Kd: 1.6 nM
B6: G04-Lib6-Pl2 (antibody, V domains shown)
VH: EVQLVQSGAEVKKPGASVKVSCKASGYSFTKSGIHWVRQAPGQGLEWMGWINPRTGNINYAQKLQGRGTMTTDPSTSTAYMELRSLRSDDTAVYYCARTHLGSSSSPPGYYYGMDVWGQGTTVTVSS
VL: ESALTQPASVSGSPGQSITISCTGTNIGAKAVSWYQQHPGKAPKLMIYAENKRPSGVSNRFSGSKSGNTASLTISGLQAEDEADYYCQAWDNRAILFGGGTKLTVL
notes: as for B2

Kd: 1.5 nM
B7: iggrefmat 2-16 (antibody, V domains shown)
VH: QVQLVESGGGLVQPGGSLRLSCAASGLTFSGSAMSWVRQAPGKGLELVASITGSGTRTYYPDSVKGRFTISRDNAKNSLYLQMNSLRAEDTAVYYCARGLHAFDIWGQGTMVTVSS
VL: DIVMTQSPLSLPVTPGEPASISCRSSQSLLSSYGYHNLHWYLQKPGQSPQLLIYMGYNRASGVPDRFSGSGSGTDFTLKISRVEAEDVGVYYCMQGMHLPITFGGGTKVEIK
notes: Tested as an antibody captured by anti-human IgG Fc; also called C07-Lib3-Pl1

Kd: 0.38 nM
B8: iggrefmat 6-16 (antibody, V domains shown)
VH: EVQLVESGGGLVQPGRSLRLSCAASEFSFSRFDMHWVRQAPGKGLEWVSAISSSGSYKDYADSVEGRFTISRDNAKNSLYLQMNSLRAEDTAVYYCAREAYGDYGKPFDYWGQGTLVTVSS
VL: DIQMTQSPSSLSASVGDRVTITCRASQSISRNLAWYQQKPGKAPKLLIYAGSTLQRGVPSRFSGSGSGTDFTLTISSLQPEDVATYYCLQANMYPLTFGGGTKV
notes: as for B2

Kd: 2.6 nM
B9: iggrefmat 3-4 (antibody, V domains shown)
VH: EVQLVQSGAEVKKPGASVKVSCKASGYTFSDHYISWVRQAPGQGLEWMGWMNPTSGHTNYAQKLQGRGTMTTDPSTSTAYMELRSLRSDDTAVYYCARVSGRWLPAVDGHYYYYYGMDVWGQGTTVTVSS
VL: ESALTQPASVSGSPGQSITISCTGTGSNIGAGYGVSWYQQHPGKAPKLMIYANINRPPGVSNRFSGSKSGNTASLTISGLQAEDEADYYCSSYTSSSWMFGGGTKLTVL
notes: Tested as an antibody captured by anti-human IgG Fc; also called D11-Lib4-Pl1

Kd: 0.92 nM
B10: iggrefmat 3-11 (antibody, V domains shown)
VH: EVQLVQSGAEVKKPGASVKVSCKASGYTFATYPISWVRQAPGQGLEWMGGMNPTTGDTIYAQKLQGRGTMTTDPSTSTAYMELRSLRSDDTAVYYCARGDRAWFDPWGQGTLVTVSS
VL: B9 VL
notes: Tested as an antibody captured by anti-human IgG Fc; also called H03-Lib6-Pl2

Kd: 3.4 nM
B11: iggrefmat 6-28 (antibody, V domains shown)
VH: EVQLVESGGGLVQPGRSLRLSCAASGFSFSDYHMHWVRQAPGKGLEWVGAISGSAYTTDYADSVEGRFTISRDNAKNSLYLQMNSLRAEDTAVYYCARDDYNKDGFDPWGQGTLVTVSS
VL: DIQMTQSPSSLSASVGDRVTITCRASQSIYSYLAWYQQKPGKAPKLLIYDASRLQSGVPSRFSGSGSGTDFTLTISSLQPEDVATYYCQQGYRSPITFGGGTKVEIK
notes: Tested as an antibody captured by anti-human IgG Fc; also called E03-Lib8H1N4

Kd: 5.6 nM
B12: iggrefmat 2-12 (antibody, V domains shown)
VH: EVQLVESGGGLVQPGGSLRLSCAASGFSFGTYSMSWVRQAPGKGLELVASIDTAGTPYYPDSVKGRFTISRDNAKNSLYLQMNSLRAEDTAVYYCARSYSGYDPYDAFDIWGQGTMVTVSS
VL: DIVMTQSPLSLPVTPGEPASISCRSSRSLVHGSGDNYLHWYLQKPGQSPQLLIYDASNRFSGVPDRFSGSGSGTDFTLKISRVEAEDVGVYYCAQTLQIPLTFGGGTKVEIK
notes: Tested as an antibody captured by anti-human IgG Fc; also called E08-Lib3-Pl1

Kd: 5 nM
B13: B07-Lib3-Pl1 (antibody, V domains shown)
VH: EVQLVESGGGLVQPGGSLRLSCAASGFTLDNYVMSWVRQAPGKGLELVASISGSSADTYYPDSVKGRFTISRDNAKNSLYLQMNSLRAEDTAVYYCAKGIAAGYGMDVWGQGTTVTVSS
VL: DIVMTQSPLSLPVTPGEPASISCRSSQSLLHSSGYTYLHWYLQKPGQSPQLLIYATSYRAPGVPDRFSGSGSGTDFTLKISRVEAEDVGVYYCMQATHPYTFGGGTKVEIK
notes: as for B2

Kd: 2.5 nM
B14: iggrefmat 3-13 (antibody, V domains shown)
VH: EVQLVQSGAEVKKPGASVKVSCKASGFPFSTSAISWVRQAPGQGLEWMGWMDPATGQTNYAQKLQGRGTMTTDPSTSTAYMELRSLRSDDTAVYYCARALRYCSGGRCQGFHGMDVWGQGTTVTVSS
VL: ESALTQPASVSGSPGQSITISCTGTNIAAKSVSWYQQHPGKAPKLMIYANINRPPGVSNRFSGSKSGNTASLTISGLQAEDEADYYCSSYTSSSWMFGGGTKLTVL
notes: Tested as an antibody captured by anti-human IgG Fc; also called C11-Lib4-Pl1

Kd: 0.89 nM
B15: G05-Lib3-Pl1 (antibody, V domains shown)
VH: EVQLVESGGGLVQPGGSLRLSCAASGFTFSDYSMSWVRQAPGKGLELVASISESGHDTYYPDSVKGRFTISRDNAKNSLYLQMNSLRAEDTAVYYCARGIAVAGTRAFDIWGQGTMVTVSS
VL: DIVMTQSPLSLPVTPGEPASISCRSSQSLLYSTGYNYLHWYLQKPGQSPQLLIYMGSYRASGVPDRFSGSGSGTDFTLKISRVEAEDVGVYYCMQALPTPPITFGGGTKVEIK
notes: as for B2
